Among the data in PMC4933286 are stoichiometry N values, retold here.

In experiment [1] the target is BTV-1 VP5 mutant 2 (R10L/K13L/K14L) (bluetongue virus serotype 1 (BTV-1)). Nature of the experiment: native gel or EMSA. For orientation: Mobility shift assays separate free from complexed probe on a gel.
Experiment [2] addresses BTV-1 VP5 mutant 3 (K3L/R6L/R10L/K13L/K14L) (bluetongue virus serotype 1 (BTV-1)). Kind of experiment: native gel or EMSA.

Usually stoichiometry N stands for the number of molecules, sites or subunits per partner or assembly. As for “BTV-1 VP5 mutant 2 (R10L/K13L/K14L) (natural protein)”, the stoichiometry N in experiment [1] was 3.

“BTV-1 VP5 mutant 3 (K3L/R6L/R10L/K13L/K14L) (natural protein)” came in with a stoichiometry N in experiment [2] of 3.
